assay: soluble on expression in E. coli; label from the status in PepcDB or PDB records

Soluble on expression in E. coli, not soluble:
MGSDKIHHHHHHMLATTIGSIAMRRRVSSLVKVRPAGAATQPALGLRVPLVALVQALAVAEHLNFRHAADALGISQSSVSTRIKQLEQDLGVQLFERRHRGVRLTEAGQHFLEHVATGIEHLDHAVRTAGAIARGERGRLRVGLYSSIFAGFLAELLGQFRGQYPTVDLQIMEGRARDTIRAVREARLDVAFVVGVPKVSDCHSKPLWTEALFVALPERHALAEAEGVTWPALSGASFLARTGGPGPQVHDHIVLRLAGHWCQPRIQRFDVERDTLMSMVAQGYGITLTSEAAAQVPFPGVVFRPVLDETELITFSALWSPHNRCQTLLHLLALAEQKSEGRSLGI
MGSDKIHHHHHHMLDKSRLSRFKTQIDSQTEIAKFDALAKEWRDPHGKFKHVLSFNQTRLTAIEDQIASHFGRDLTQDIPFDGLSLLDIGCGVGLLCEPLASQGARVTGIDASEHNITLAHRHANSWSIPIEYRHCLAGDLPREQPQYDVILNTEVIEHVEDQAALVASCCDLLKPGGLMVMATLNRTLRSYLIGIIGAEYIMRYLPTGTHDWHHFVTPQELDEMLTPHGLSTKGVEGMAFNPFTRRWKITSNSAVNYLLYASKPIPGVLEA
MGSDKIHHHHHHMLDPIEFIHNASSISKKSMNRLKLKTNPFSEKPIRGNTKFFVGRTSELSEIADILGAAQYGSVANAAIVGTKGIGKSSILNILYYASKRHNHWVVELEASQITARQFLIQLMYGIIKDNLFSVDGTLSSDYMKHSQKIIEIYKRLSNYSDKTPVHYPREKIERDLKYLLNEVKEENKLCVILIDEADQFAKRSCLGLLQFFHSFLYEDDILTFLAGPPTMVEDLTKISPAIRDRIPKIINMPPLTKEEAYDLIKRRLEDSQITGAKGYQPFSEQSIEKIIEECDGIPRRIIMTCSEAVSLGLKNGVDEIDDEIARNAMKNLGISVGHQILNHLTPAQSKIIKAMAELGGSSTVTELSGILNNSTGTIGTHLSDIYEMGYIYKERDGYNVYYTLSKELKDVLITKEDIS
MGSDKIHHHHHHMLDSPLSLLAGVGAEIAAGNLIPFLGPDVLTIEAEPPVPVGARTLSLALASKVGVPGRIKNNLWHSAQYIETHKHRVTLDKLMAAFFQPIPEPNALHRWLAGLPKLPMVVDTWYDGAMKAAFEAVGRESWGIVQGCSKARRLDGGVWFRAVSPDGAIVAEDVAESWRTVLYKPHGAAQPTGDVLVSDSDYVEVLTDIDIGTPIPQLVKDRRSNRGFVFLGCRFYDQILRTFARQISKRCGGPRYAVVPEELTRNELKFLEVEGITPITMPLAEAVALMTAAKTA
MGSDKIHHHHHHMLEFTLNFNDYGLKMGILTKLELDYEIDDIEKFLQFFRTMCDRFEPLIIKLGSDSVRYKEAIKELETLAHNTAWAARRLNLEEVTDFCVFCEEMMAQANRFNGPASDEFTDWMLLMSDQFEKYCRSYENDDSVLAVFNPLIVNVPNIISK
MGSDKIHHHHHHMLESTEKGEVRKTVGNYRLILMNDPNLQGAFRLNMFTDKIDITRDLGWYRESDSLTDVDLKFLVVYLEKHYGLSNEKRIEDVIKVVANENRYHPVLDRINSITWDGRERIRYALHHFLGAEVSEYTYEVMKLFMIGTIARISCPGIKFEVMLCLVGGQGAGKSTFLRFLAMEDDWFTDDLKKMDDDNVYRKIQGHLIIEFPEMVAILNAKNVEDTKSFMSRQKDTYKTPYDRHPKDHKRQCVFAGSSNSLDFLPMDRSGNRRFLPILCNMEEAETHILDDEKTSREYIDQMWAEAMEIYRSGKCQLRLPKEMEKELCEYQKQFMQEDTKKELILDYLEHYEGSMVCSRQLYSEALGNDGNPAQWEIREINDIMNNCSDWIAFSNPRHFPEPYRRQKGWEKPDNRGQDFQPITKEQMEQLSLPPEWMER
MGSDKIHHHHHHMLFHKFFDFFEGYEDCYVIIGGNAAAIWLAQDHQDFRATQDYDMVVIFENSQLGFSQKFDDFIEKYGYLCVEIGGDVNKKKVYYRFALDPALAVTGVPQQIELFSKIPLRYELRLPTETMPLHFATGPSLSAIVLNDDYYSLLKQCQQKIGHVSILSVPGLIYFKAKAHLDIRQRLANGDKLRHRANKNKHYKDVCRLCDLIIENQTFDSKVVPRTCQNDLKSFIQLVEAEPEQIFKKRFKSDPDFDLNRDEVVRVLRSLLPTS
MGSDKIHHHHHHMLGSNMLLTNRIDLRSYHTESCSHTHDFAQLVLPVSGSMELEVGHYSGVVNDDIGVYIAPNEQHCFAGSQKNLFLVIDATTQNSLRDEAFESNILNLTASTKKLIQFTHHYLAHNERDFFTDSLINQLLFHFAASSFSPEPDLVVIRAKQWIDLYFADSVNVNRVAKHCYLSISQLQRRFKQMLGCGIAEYWRMKKLLHAKKLLSQKNCSIEAIAFEVGYENLPAFSRRFSKVFGESPSQWRSKALTAKKMREIDK
MGSDKIHHHHHHMLHLNLLQVFISVAENSSFTLAGSEMHRTQSAISMKIKRLEEILGVPVFERSGKSIELTKEGAIFLTHSRRILQLVDEAMSAVGAVRKSNVVRLGCVEDYAVRTIPKILVDFWVEHPDVHIEMGTGDSASLLDRLGDDFDVVLAEHPLNSGEGEVVCTDSLVWGASANHSPHLQEPIPVAFRSQGALERQWACSALNAAGRPWRLACLSAGIGTLQTAVDAGLAVGVFKASTLAGALNRLTPADNFPQLPDVEMALHVMNDGFSQPSIMQLVKKLRESLQRPQLAAAHE
MGSDKIHHHHHHMLIISPKYLNGKIEIEKGERVGLVGKNGSGKTTLILSALCLDQTTSNVTVDDLDFCKEKDYSKISAVLQDVSSQILASTLKDEIELMKRFHSVDDKIARNLMGHYYEVEFNKLSDGYKKRYAIASVLASNPEYILLDEPFANLDDKGVKSVSTIVPKNSLIAEHRIEELRKLVDRVYMIRNNKEINEISKEKLFDIEFLRKEGLRGFSLPKINSELGNEILNVNIDNFTIKIREGEILCLLGRNGSGKTTILRKLSKKIFVIFQEVDLQFFYFTVREIVRSKRVLSLFKLENLADKSPYALSFGQKMRILIASAFSSDSRVIGLDEPSVGMDGEALLSFYEMVKMLKEQKRGLILATHDKDIISLCDTRIVID
MGSDKIHHHHHHMLISLEDTNYTLVKEYLEKSVNHHILQRYIDNHNFPIIEKSYHKYLTFESLEEDFTYILKDGIVKQSVLSKYGMEFNLRYVTGLEITSVLNTGYSKDMGEPYNVRIESEKASFYKVRRSAFLKDINEDIELQGYVKDFYHNRLQKSMKKMQCMLTNGRIGAISTQIYDLMTLFGEELPNGQILINFVITNEELGKFCGISTASSVSRILKQLKEKNIIRIDKQHIIITNLDKLKDNIVF
MGSDKIHHHHHHMLKIGKRNPNKPLVIENDQVVSLYFDARGVQSTMLRHDPYALALGYTRTMMGFLLFRPSPCRISMIGLGGGSLAKYCYRHLPDTAITAIEINPDVIALRDHFHVPRDDGRFTVVCADGAQYVAVPGHRPDVLLVDGFNADGLPARLGSSAFYEACRRRLSDDGVLVANLVTDEPDFHRYLRALWEVFAGAVALAPSEGSEHNVTVFAWKGAGGLPSFAAMLDRARALQARHAVNLHATATRIEYGKKFNWSRYGRTA
MGSDKIHHHHHHMLKNSAKNFVENIEKKLYLSIKEKTDSITFKLEKVLKAFSDSHLNVQHFASLTGYGHGDLGRDIIDKIFANVLDAEKAAVRLQLVSGTHAITSSLFGVLRPGDGLLSVTGRPYESLEEVIGLRGNGKGSLIEFGIAYEEISLKDDGNIDFLALEKALKIPRKLIFIQRSCGYTWRPSLSIEVIKEICYLCHKIQPNCICFVDNCYGEFVETNEPTSVGADLIAGSLIKNLGGTIVPTGGYIAGKADLVDKACCRLTAPGIGSEGGITFDLNRTILQGLFLAPQMVSEALIGAEIISTSFSELGFKVLPTPASKRTDLIQIVRIGDPKILQIICRSFQEKSPIGSFLDPIPAPMPGYENNLVMAGGTFVDGSTSEFSADAPMKPPFDLFIQGGSHRAHVKIALIHALSNLFQAGLIKLPQND
MGSDKIHHHHHHMLKPSDKWSWYFSDSEGYLMLNLGDDMLFRTNLSRNLLVDCAFIENPFTVDDASDFQLYKEHIACLPLSEPRKAELALYCVAAKRFHKPVQPKSWFFDVQGTGYTPQQGQLISLRNSLNSGIFIALEVGENATLCAYSDLVSFALNGSKTLEFGQVIKVMHDRMSDVNTLLYTPQMAMVS
MGSDKIHHHHHHMLLGRTANGLYWMNRYIERAENMARLVDAGLRMALTRTQNASEEWNSVLLSAGSDVAFKQKYSDYTAADVADFLLRDTSNPSSTMSSIETARNNARMVRTALTRETWESINEAWMSLKRMLARPIDERDLPSVLDAIKRETALIRGSFYGTMLRNEIFDFSQLGTYVERADNTARILDVKYYVLLPSISWVGSTLDNYQWESILRSVSAHRSYRWVYDADYKPTNIADYLILNVRMPRSLTFCYRFLSEHLKFLSDDYGERHACHATAEKTQAMLRAGSIKDIFDAGLHEFLAGFIRDNTRLGDEIAQDYRFY
MGSDKIHHHHHHMLLTDLVTPPDTALCAAAEEMARMASDPFLYNHVSRSYIFGALAARATGTQYDPELFYIAAMLHDLGLTETYMAEDRFEVDAAEAAAKFLAAQNVEQSRIDRVWDAIALHTTFSIPQKKSPEAALVQIGAGLDVGVMPHDHITPEVMEQVLDAYPRLGFKKAMEQALIKVYAAKPMTAMHNFGADVAHRHVPDFHPPHFCDVLHGADFPE
MGSDKIHHHHHHMLLYIHGFNSSPFSDKAVITARYMAEYHPSLTFHQPQLPNTPKAAMALLQSYVEAAQQANEPLNYIGSSLGGYFASYLAERYGGRAVLVNPAVKPFELFDEFMGPQFNPYTQEHYQVLPEHKREVAEFNTPVIRNPERFLVLLQTGDEVLDYREALHKYHHCQLRIESGGDHSFVGYERYLQTVSQFLHLP
MGSDKIHHHHHHMLNMNFDEQVFINTQEQPWVASPKAGVWRKPLAREDAERGHATSLVKFDPGASFTEHDHPLGEEILVLSGTFSDHTGDYHAGSYFRNPEGFRHAPFSKDGCILLVKLHQFQSGDNEHVVIDTANKSWSPGMGNLMVMPLHSFEGESTALVKWPKDERFQPHKHFGGEEIFVISGEFIDEHGRYPEGSWIRSPHLSEHFPYVEQETIILVKVGHL
MGSDKIHHHHHHMLNQVYRLVSPRQFEVETVAEEVDADDLIVRPKFLSICHADTRYFFGQRSQAALRAKLPMALIHEAVGEVVYDPRNEYKPGTLVAMVPNTPVKKDSIIQENYLPSSRFRSSGYDGFMQEYVCLRRDRAITVPSDFDPHMAAFIEMVSVGVQALTKLESTMDEDQRVIGIWGDGNLGYITATLVKQIFPDSQLLVFGRHQSKLDYFSFADKTYLVDDIPADVKVSQALECTGGQGSEAAIQQIIQHIQPMGTAILMGVSENPVGIDTRSVLAEGLTLRGVSRSSREDFKRAVDILSSSPVTRERLQNLVGYVQKVSSIQDITNFFDSALTNYWGKEVMEWDV
MGSDKIHHHHHHMLPALWVAKTGLSAQDTNLTVISNNLANVSTTGFKRDRAEFADLLYQIKRQPGAQSTQDSELPSGLQVGTGVRIVGTQKSFVAGSLQTTDNPLDMAVNGRGFFQILQPDGTVSYTRDGTFHLNSDGQIVTDNGYALEPAIVVPNDAQTFTVGQDGTVSITTAGNPAAQVIGNIQTADFINPAGLQAIGDNLFLETAASGAPQVGTPGLNGFGTTLQQTLENSNVSTVEELVNMITTQRAYEMNSKVISTADQMLSFVTQQL

From the DeepSol protein solubility set
